Test system: MS2 coat protein
Assay: apparent KD of MS2 coat protein; higher = weaker reporter binding
Conditions: Eterna round: R107
Outline: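 Illumina sequencing clusters were used for on-chip transcription of designed RNA switches. Titration with SNAP-549-labelled MS2 coat protein followed, in twofold steps from 0.7 or 1.5 nM to 3 µM in 100 mM Tris-HCl pH 7.5, 80 mM KCl, 4 mM MgCl2, without or with constant ligand. Apparent KD is each design's median of fits to normalised cluster binding curves.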

[1] = input ligand: theophylline 20 uM
[2] = input ligand: tryptophan 2.4 mM
[3] = input ligand: theophylline 2 mM

Row | Sequence | apparent KD of MS2 coat protein (input ligand: arginine 13.2 mM) | apparent KD of MS2 coat protein [1] | apparent KD of MS2 coat protein [2] | apparent KD of MS2 coat protein [3] | apparent KD of MS2 coat protein (input ligand: none)
1 | AGCGAUAUGCAUGAUACCAGCUACAUGAGGAUCACCCAUGUGCGUCAGAAAUGACUGUGUAGCCCUUGGCAGCAUAGAGCAUGUA [Exclusion - Theophylline B (Freestyle 11)] | 35.2 nM | 46.2 nM | 38.4 nM |  | 
2 | AGCGCGGUGAUGGUAGCCGGACGCUAGGUACGAGGACCGGUACGGCCGCCACUCGGAGUCCUACGACAUGAGGAUCACCCAUGUA [Same State Trp A GF16] | 61.2 nM | 106 nM |  | 111 nM | 
3 | AGCGCUGUGCAUGAUACCAGCUACAUGAGGAUCACCCAUGUGCGUCAGAAAUGACUGUGUAGCCCUUGGCAGCAUAAAGCAUGUA [Exclusion - Theophylline B (Freestyle 8)] | 19.7 nM | 26.6 nM | 19.6 nM |  | 
4 | AGGAAACAACAUGAGGAUCACCCAUGUGAUACCAGUCAAAUAAAAGACCCUUGGCAGCACACAUGACAUGAGGAUCACCCAUGUA [AstrosSSTheA#1] | 24.8 nM | 41.5 nM | 59.8 nM |  | 
5 | AGGACGGUCGGAAGGAGCGGUACAUGAGGAUCACCCAUGUACUUAUGGGCAUCCGUAGAGUGCCAGGUAGGUCGCCGAUUGCGGG [XArg-B11] | 17.2 nM | 29 nM | 34.1 nM | 21.8 nM | 33 nM
6 | AGUAGACACGCGGCCGCCACUUGAGGAUCACCCAAGUGGUGUGUACUUGAAAACAAGUGCACAUCAAGGACCGGGCGUGUCUACA [Omei Tryp B SS D v3] | 7.19 nM | 8.01 nM | 8.54 nM | 7.12 nM | 7.05 nM
7 | AGUAGACACGCGGCCGCCACUUGAGGAUCACCCAAGUGGUGUGUACUUGAAACAAGUGCACAAUCAAGGACCGGGCGUGUCUACA [Omei Tryp B SS D v4] | 5.02 nM | 8.77 nM | 13 nM | 7.77 nM | 7.02 nM
8 | AGUAGACACGCGGCCGCCACUUGAGGAUCACCCAGGUGGUGUGUACUUGAAACAAGUGCACAAUCAAGGACCGGGCGUGUCUACA [Omei Tryp B SS D v1] | 12.6 nM | 17.4 nM | 83.7 nM | 15.1 nM | 13.5 nM
9 | AGUAUCAGUGGAAGGAGCGUCGCGACUGCUACAUGAGGAUCACCCAUGUCGCCUUGAGCGCGACAGGUAGGUCGCCACGGUAGGC [SS-ArgB1] | 28.6 nM | 68.8 nM | 40.3 nM | 72.1 nM | 49.6 nM
10 | AGUCUUAAUGGAAGGAGCGCAGUCAUAACAUGAGGAUCACCCAUGUCGAGGUGAGGGUCAUUGCAGGUAGGUCGCCAUACUAGGA [Same State - Arginine B (Freestyle 2)] | 84.6 nM | 264 nM | 131 nM | 240 nM | 181 nM
11 | AGUUUAGACACGGCCGCCACUCGUGACAGAUUUCGCAGUGGUCUACAUGAGGAUCACCCAUGUCUGAGGACCGGGUGUUGAGUUU [XTryp B #8] | 76.3 nM | 177 nM |  | 194 nM | 
12 | AUAAAUAAAACCGAUACCAGCCUUAUACAUGAGGAUCACCCAUGUUAUGCUUCCUUUUUUGGCCCUUGGCAGCGGAAAUGGGUAA [AstrosSSTheB#1] | 45.3 nM | 74.4 nM | 75.6 nM |  | 
13 | AUAACAUGAGGAUCACCCAUGUAAGCAGAUACCAGCUAGGAAACUAGCCCUUGGCAGCUGCAAUCAUGGGUGUGGUAUCUGCUAA [(M1)-(M2)-(T1)-(T2)-(M)'-(T)'_Design5] | 21.5 nM | 39.7 nM | 16.4 nM |  | 
14 | AUAACAUGAGGAUCACCCAUGUAGAGUGAUACCAGACUAUGUAAUGUCCCUUGGCAGCACAAGUAAAGUUAUAAAUAAUGAUAGA [JR_SSTheophyA_Sub001] | 89.3 nM | 126 nM | 136 nM |  | 
15 | AUAAGGUAUCUGCUAUCCUCAUGAGCAGAUACCAGCUAGGAAACUAGCCCUUGGCAGCUGCAACAUGAGGAUCACCCAUGUAAUA [(T)'-(M)'-(T1)-(T2)-(M1)-(M2)_Design1] | 64.4 nM | 118 nM | 256 nM |  | 
16 | AUAAUAAAGUCGGCCGCCACUAUAAACAUGAGGAACAUGAGGAUCACCCAUGUAUGAGGAUCACCUAGGACCGGGACAAAUAUUA [AstrosExyTryB#3] | 47.3 nM | 88.3 nM | 54.7 nM | 63.1 nM | 57.3 nM
17 | AUAAUAAUGUCGGCCGCCACUAUAAACAUGAGGAACAUGAGGAUCACCCAUGUAUGAGGAUCACCUAGGACCGGGACUAAUAUUA [AstrosExyTryB#5] | 33.9 nM | 57.1 nM |  | 52.9 nM | 
18 | AUACAUGAGGAUCACCCAUGUAAAGUUGAAGGAGCGACCAGAGGGUCAGGUAGGUCGCAACACAUGAGGAUCACCCAUGUAUCGA [DOUBLE!!! :-D #6] | 53.3 nM | 78.4 nM | 71.4 nM | 79.4 nM | 83.6 nM

Source: the supplement of paper PMC9170038
